Measured values published in article PMC11849937, “Atractylenolide I inhibits angiogenesis and reverses sunitinib resistance in clear cell renal cell carcinoma through ATP6V0D2-mediated autophagic degradation of EPAS1/HIF2α” (Autophagy, 2024).

Target: T1, His-VPS41 (recombinant, bacterial) (UniProt P49754 1-854)
T1 construct: VPS41; The only His-VPS41 plasmid that the methods name is in the vector pGMLV; source: BL21 (Rosetta) bacterial cells, purified (His beads)
T1 sequence (looked up): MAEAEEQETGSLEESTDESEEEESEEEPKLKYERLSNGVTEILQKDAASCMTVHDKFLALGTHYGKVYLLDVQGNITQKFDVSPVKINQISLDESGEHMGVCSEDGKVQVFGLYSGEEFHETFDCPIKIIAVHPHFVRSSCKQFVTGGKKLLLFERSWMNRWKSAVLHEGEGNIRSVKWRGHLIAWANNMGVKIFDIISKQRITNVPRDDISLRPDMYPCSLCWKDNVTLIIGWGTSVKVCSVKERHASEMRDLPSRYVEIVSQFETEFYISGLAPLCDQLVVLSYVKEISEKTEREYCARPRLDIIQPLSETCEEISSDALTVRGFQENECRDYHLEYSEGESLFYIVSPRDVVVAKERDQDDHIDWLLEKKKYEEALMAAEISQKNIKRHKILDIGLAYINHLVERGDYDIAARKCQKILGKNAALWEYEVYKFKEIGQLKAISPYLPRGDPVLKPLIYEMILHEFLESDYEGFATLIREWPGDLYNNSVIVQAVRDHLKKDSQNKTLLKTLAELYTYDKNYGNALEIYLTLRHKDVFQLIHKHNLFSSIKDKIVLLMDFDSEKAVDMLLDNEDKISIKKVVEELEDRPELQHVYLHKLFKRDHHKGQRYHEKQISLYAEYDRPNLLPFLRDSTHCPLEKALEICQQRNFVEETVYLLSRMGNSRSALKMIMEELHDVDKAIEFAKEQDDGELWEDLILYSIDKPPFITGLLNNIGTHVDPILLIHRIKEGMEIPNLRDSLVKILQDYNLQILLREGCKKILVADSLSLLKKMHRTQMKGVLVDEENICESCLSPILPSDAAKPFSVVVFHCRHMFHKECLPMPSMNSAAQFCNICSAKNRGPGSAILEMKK
Experiment: pull-down; GST-tagged protein (2.5 ug) immobilised on glutathione-Sepharose beads, incubated with His-RAB7, His-VPS41 or both in affinity-isolation buffer with PMSF; western blot
Settings: both partners purified

binding result: binds
B1: GST-tagged ATP6V0D2 (natural protein)
chain: not shown
notes: ATP6V0D2, ATPase H+ transporting V0 subunit d2; Construct bought from Tsingke Biotechnology; also called GST-ATP6V0D2; source: BL21 (Rosetta) bacterial cells, purified (glutathione-Sepharose beads)
